The target in this assay is SNARE complex containing syntaxin-1A(2-253), synaptobrevin-2(29-93), SNAP-25(11-82) and SNAP-25(141-203) (rat | human, UniProt P32851;P63045;P60880). The experiment in a line: SEC. Background: In gel filtration, larger molecules generally elute earlier.
Chain of SNARE complex containing syntaxin-1A(2-253), synaptobrevin-2(29-93), SNAP-25(11-82) and SNAP-25(141-203) (P32851 2-253, chain 1 of 4): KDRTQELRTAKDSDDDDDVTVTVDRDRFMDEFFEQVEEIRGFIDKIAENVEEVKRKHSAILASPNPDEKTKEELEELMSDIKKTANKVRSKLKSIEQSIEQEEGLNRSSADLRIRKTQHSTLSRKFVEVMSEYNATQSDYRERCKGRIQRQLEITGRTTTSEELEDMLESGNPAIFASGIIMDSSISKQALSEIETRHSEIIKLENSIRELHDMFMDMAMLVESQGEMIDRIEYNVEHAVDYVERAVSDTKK
Chain of SNARE complex containing syntaxin-1A(2-253), synaptobrevin-2(29-93), SNAP-25(11-82) and SNAP-25(141-203) (P63045 29-93, chain 2 of 4): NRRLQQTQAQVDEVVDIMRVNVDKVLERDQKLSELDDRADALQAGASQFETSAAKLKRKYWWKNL
Chain of SNARE complex containing syntaxin-1A(2-253), synaptobrevin-2(29-93), SNAP-25(11-82) and SNAP-25(141-203) (P60880 11-82, chain 3 of 4): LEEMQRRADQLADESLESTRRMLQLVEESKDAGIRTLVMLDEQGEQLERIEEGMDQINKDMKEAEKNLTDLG
Chain of SNARE complex containing syntaxin-1A(2-253), synaptobrevin-2(29-93), SNAP-25(11-82) and SNAP-25(141-203) (P60880 141-203, chain 4 of 4): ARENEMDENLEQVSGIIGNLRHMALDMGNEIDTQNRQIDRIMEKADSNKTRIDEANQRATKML

B1: complexin-1(26-83) (domain or fragment)
chain: KDPDAAKKEEERQEALRQAEEERKAKYAKMEAEREVMRQGIRDKYGIKKKEEREAEAQ
As for B1, the binding result was “binds”.

The values above are taken from publication PMC2686405 (The Journal of Cell Biology, 2009).
